Measurements as given in the Human Domainome abundance scans (Beltran et al. 2025).
± gives the uncertainty stated by the source.

B1: Homeobox protein SIX3, residues 212 to 262; numbered along this chain, O95343 (parent)
chain: CFKERTRSLLREWYLQDPYPNPSKKRELAQATGLTPTQVGNWFKNRRQRDR

Variants of: B1
Assay: abundance fitness (aPCA) (normalised: wild type 0, dead -1); higher = more abundant; growth selection in yeast, the domain comes from the species named
Conditions: Homo sapiens

| Variant | abundance fitness |
| --- | --- |
| CFQERTRSLLREWYLQDPYPNPSKKRELAQATGLTPTQVGNWFKNRRQRDR | -0.216 ± 0.2 |
| CFIERTRSLLREWYLQDPYPNPSKKRELAQATGLTPTQVGNWFKNRRQRDR | -0.362 ± 0.18 |
| CFMERTRSLLREWYLQDPYPNPSKKRELAQATGLTPTQVGNWFKNRRQRDR | -0.624 ± 0.2 |
| CFRERTRSLLREWYLQDPYPNPSKKRELAQATGLTPTQVGNWFKNRRQRDR | -0.275 ± 0.047 |
| CFVERTRSLLREWYLQDPYPNPSKKRELAQATGLTPTQVGNWFKNRRQRDR | -0.655 ± 0.12 |
| CFCERTRSLLREWYLQDPYPNPSKKRELAQATGLTPTQVGNWFKNRRQRDR | 0.158 ± 0.12 |
| CFPERTRSLLREWYLQDPYPNPSKKRELAQATGLTPTQVGNWFKNRRQRDR | -0.39 ± 0.071 |
| CFNERTRSLLREWYLQDPYPNPSKKRELAQATGLTPTQVGNWFKNRRQRDR | 0.165 ± 0.069 |
| CFTERTRSLLREWYLQDPYPNPSKKRELAQATGLTPTQVGNWFKNRRQRDR | -0.134 ± 0.11 |
| CFYERTRSLLREWYLQDPYPNPSKKRELAQATGLTPTQVGNWFKNRRQRDR | -0.262 ± 0.095 |
| CFSERTRSLLREWYLQDPYPNPSKKRELAQATGLTPTQVGNWFKNRRQRDR | -0.106 ± 0.1 |
| CFHERTRSLLREWYLQDPYPNPSKKRELAQATGLTPTQVGNWFKNRRQRDR | -0.72 ± 0.4 |
| CFDERTRSLLREWYLQDPYPNPSKKRELAQATGLTPTQVGNWFKNRRQRDR | -0.037 ± 0.068 |
| CFEERTRSLLREWYLQDPYPNPSKKRELAQATGLTPTQVGNWFKNRRQRDR | 0.074 ± 0.062 |
| CFKEHTRSLLREWYLQDPYPNPSKKRELAQATGLTPTQVGNWFKNRRQRDR | -0.522 ± 0.21 |
| CFKEYTRSLLREWYLQDPYPNPSKKRELAQATGLTPTQVGNWFKNRRQRDR | -0.455 ± 0.24 |
| CFKEITRSLLREWYLQDPYPNPSKKRELAQATGLTPTQVGNWFKNRRQRDR | -0.418 ± 0.23 |
| CFKEQTRSLLREWYLQDPYPNPSKKRELAQATGLTPTQVGNWFKNRRQRDR | -0.317 ± 0.093 |
| CFKEATRSLLREWYLQDPYPNPSKKRELAQATGLTPTQVGNWFKNRRQRDR | -0.075 ± 0.09 |
| CFKEGTRSLLREWYLQDPYPNPSKKRELAQATGLTPTQVGNWFKNRRQRDR | -0.102 ± 0.083 |
| CFKEETRSLLREWYLQDPYPNPSKKRELAQATGLTPTQVGNWFKNRRQRDR | -0.098 ± 0.095 |
| CFKEVTRSLLREWYLQDPYPNPSKKRELAQATGLTPTQVGNWFKNRRQRDR | 0.003 ± 0.059 |
| CFKEPTRSLLREWYLQDPYPNPSKKRELAQATGLTPTQVGNWFKNRRQRDR | -0.329 ± 0.13 |
| CFKEWTRSLLREWYLQDPYPNPSKKRELAQATGLTPTQVGNWFKNRRQRDR | -0.369 ± 0.12 |
| CFKETTRSLLREWYLQDPYPNPSKKRELAQATGLTPTQVGNWFKNRRQRDR | -0.148 ± 0.091 |
| CFKELTRSLLREWYLQDPYPNPSKKRELAQATGLTPTQVGNWFKNRRQRDR | -0.283 ± 0.1 |

| Variant | abundance fitness |
| --- | --- |
| CFKEDTRSLLREWYLQDPYPNPSKKRELAQATGLTPTQVGNWFKNRRQRDR | -0.18 ± 0.16 |
| CFKECTRSLLREWYLQDPYPNPSKKRELAQATGLTPTQVGNWFKNRRQRDR | -0.359 ± 0.39 |
| CFKEKTRSLLREWYLQDPYPNPSKKRELAQATGLTPTQVGNWFKNRRQRDR | -0.394 ± 0.31 |
| CFKENTRSLLREWYLQDPYPNPSKKRELAQATGLTPTQVGNWFKNRRQRDR | -0.225 ± 0.15 |
| CFKEMTRSLLREWYLQDPYPNPSKKRELAQATGLTPTQVGNWFKNRRQRDR | -0.16 ± 0.1 |
| CFKESTRSLLREWYLQDPYPNPSKKRELAQATGLTPTQVGNWFKNRRQRDR | 0.187 ± 0.089 |
| CFKERTRSCLREWYLQDPYPNPSKKRELAQATGLTPTQVGNWFKNRRQRDR | -0.694 ± 0.18 |
| CFKERTRSSLREWYLQDPYPNPSKKRELAQATGLTPTQVGNWFKNRRQRDR | -0.733 ± 0.074 |
| CFKERTRSMLREWYLQDPYPNPSKKRELAQATGLTPTQVGNWFKNRRQRDR | -0.199 ± 0.11 |
| CFKERTRSILREWYLQDPYPNPSKKRELAQATGLTPTQVGNWFKNRRQRDR | -0.095 ± 0.084 |
| CFKERTRSRLREWYLQDPYPNPSKKRELAQATGLTPTQVGNWFKNRRQRDR | -0.369 ± 0.063 |
| CFKERTRSTLREWYLQDPYPNPSKKRELAQATGLTPTQVGNWFKNRRQRDR | -0.138 ± 0.054 |
| CFKERTRSYLREWYLQDPYPNPSKKRELAQATGLTPTQVGNWFKNRRQRDR | -0.001 ± 0.11 |
| CFKERTRSPLREWYLQDPYPNPSKKRELAQATGLTPTQVGNWFKNRRQRDR | -0.644 ± 0.1 |
| CFKERTRSALREWYLQDPYPNPSKKRELAQATGLTPTQVGNWFKNRRQRDR | -0.43 ± 0.064 |
| CFKERTRSNLREWYLQDPYPNPSKKRELAQATGLTPTQVGNWFKNRRQRDR | -0.8 ± 0.15 |
| CFKERTRSGLREWYLQDPYPNPSKKRELAQATGLTPTQVGNWFKNRRQRDR | -0.726 ± 0.05 |
| CFKERTRSFLREWYLQDPYPNPSKKRELAQATGLTPTQVGNWFKNRRQRDR | -0.51 ± 0.22 |
| CFKERTRSQLREWYLQDPYPNPSKKRELAQATGLTPTQVGNWFKNRRQRDR | -0.266 ± 0.067 |
| CFKERTRSHLREWYLQDPYPNPSKKRELAQATGLTPTQVGNWFKNRRQRDR | -0.417 ± 0.16 |
| CFKERTRSVLREWYLQDPYPNPSKKRELAQATGLTPTQVGNWFKNRRQRDR | -0.071 ± 0.052 |
| CFKERTRSWLREWYLQDPYPNPSKKRELAQATGLTPTQVGNWFKNRRQRDR | -0.632 ± 0.05 |
| CFKERTRSELREWYLQDPYPNPSKKRELAQATGLTPTQVGNWFKNRRQRDR | -0.481 ± 0.066 |
| CFKERTRSDLREWYLQDPYPNPSKKRELAQATGLTPTQVGNWFKNRRQRDR | -0.825 ± 0.13 |
| CFKERTRSKLREWYLQDPYPNPSKKRELAQATGLTPTQVGNWFKNRRQRDR | -0.226 ± 0.073 |
